Assay results published in publication PMC2601033.

Assays:
Assay in all cases: SPR
Details in all cases: biotin (Biotin DecaLabel); SPR: PBS + 0.05% Tween 20, 25 C, 10 ul/min, SA chip (BIAcore 3000); ELISA: DNA coated at 10 ug/ml in Reacti-bind DNA coating solution, anti-GST detection …
[1] = tested on: ComE1 (PM1665), GST removed (Pasteurella multocida NCTC 10322/ATCC 43137?)
[2] = tested on: Hi1008, GST removed (Haemophilus influenzae NCTC 8470/ATCC 9332 Pittman type D?)
[3] = tested on: Aa1426, GST removed (Aggregatibacter (Actinobacillus) actinomycetemcomitans HK1651 (JP2 clone)?)
[4] = tested on: Ms0826, GST removed (M. succiniproducens)
[5] = tested on: APL_1406, GST removed (Actinobacillus pleuropneumoniae serovar 15 HS143?)

pUC19 (biotinylated) gave a Kd [1] of 7.3 µM, a Kd [2] of 5 µM and a Kd [3] of 16 µM. The Kd [4] was 46 µM and the Kd [5] was 4 µM.
